Assay: yeast display, Sf9 membrane polyspecificity reagent, FACS + sequencing; frameworks hold sequencing errors
Outline: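 A nanobody's polyreactivity label depends on the gate it was sorted from. Yeast display cells were stained with 10% biotinylated, detergent-solubilized Sf9 membrane reagent for 1 hour at 4 °C, enriched on streptavidin microbeads and sorted by FACS. The low and high (top ~1%) gates were set on anti-HA fluorescence for expression and streptavidin fluorescence for reagent binding.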

Sequence | polyreactivity (PSR sort gate)
QLQLVESGGGLVQAGGSLRLSCAASGGIFGYYTMGSYRQAPGKEREFVAAITSRGGSTYYADSVKGRFTISRDTAKNTVYLQMNSLKPEDTAVYYCAARRQRDRYGYWGQGTQVTVSS | high polyreactivity
QLQLVESGGGLVQAGGSLRLSCAASGHIFDANVMGWSRQAPGKERELVAAISSGGRTKYADSVKGRFTISRDNAKNTVYLQMNSLKPEDTAVYYCAKKHFPLYDYWGQGTQVTVSS | low polyreactivity
QLQLVESGGGLVQAGGSLRLSCAASGLIFRYYTMGWYRQAPGKERELVATITRGDSTYYADSVKGRFTISRDNAKNTVYLQMNSLKPEDTAVYFCAAAGWSRVGYWLKYDYWGQGTQVTVSS | high polyreactivity
QLQLVESGGGLVQAGGSLRLSCAASGLIFTTNAMGWYRQAPGKEREFVAAISPSGGSTYYADSVKGRFTISRDNAKNTVYLQMKSLKPEDTAVYYCAKRPYVGYDWGQGTQVTVSS | high polyreactivity
QLQLVESGGGLVQAGGSLRLSCAASGLTFYSYPMGWYRQARGKERELVATIRSSGGSSYYADSVKGRFTISRDNAKNTVYLQMNSLKPEDTAVYYCAARWGPYAFTYVRTYDYWGHGTQVTVSS | low polyreactivity
QLQLVESGGGLVQAGGSLRLSCAASGNTFYGYTMGWYRQAPGTERELVAVISSSGGRTNYADSVKGRFTISRDNAKNTVYLQMNSLKPEDTAVYYCAARSSRLPHIYGYWGQGTQVTVSS | low polyreactivity
QLQLVESGGGLVQAGGSLRLSCAASGRIFGKNDMRSYRQAPGKERELVAAITTSGGSTDYADSVKGRFTISRDKAKNTVYLQMNSLKPEDTAVYYCNAAFQNKAYIRKYKYDYWGQGTQVTVSS | low polyreactivity
QLQLVESGGGLVQAGGSLRLSCAASGRIFYQTAMGWYRQAPGKERELVADIASGGSTYYADSVKGRFSISRDNAKNTVHLQMNSLKREDTAVDYCATAVLYGDGWYYYWGQGTQVTVSS | low polyreactivity
QLQLVESGGGLVQAGGSLRLSCAASGRILRYYTMGWYRQAPGKERELVAAISRSGGGTYYADSVKGRFTISRDNANNTVDIEMYSLIPEDTSVYYCAAYKPSPYSSDYDYWGEGTQVTVSS | high polyreactivity
QLQLVESGGGLVQAGGSLRLSCAASGRTFAIYAMGWYRQAPGKERELVAAIRKRGSITYYADSVKGRFTISRDNAKNTVYLQMNSLKPDATAVYYCAVDYWGQGTQVTVSS | high polyreactivity
QLQLVESGGGLVQAGGSLRLSCAASGRTFDDYAMGWYRQAPGKERELVAAISGSAGSTYYADSVKGRFTISRDNAKNTVYLQMNSLKPEDTAVYYCARGYGTYPLYYQYLAYYYWGQGTQVTVSS | low polyreactivity
QLQLVESGGGLVQAGGSLRLSCAASGRTFQGYAMGWYRQAPGKERELVAAISRSGGRTYYADSVKGRFTISRDNAKYTVYLQMNSLKPEDTAVYYCCTEAFRDYGYWGQGTQVTVSS | high polyreactivity
QLQLVESGGGLVQAGGSLRLSCAASGRTFRLNGMGWYRQAPGKERELVAAITWSGGRTYYADSVKGRFTISRDNAKNTVYLQMNSLNPEDTAVYYCAAGKSSYGKPKYYYWGQGTQVTVSS | high polyreactivity
QLQLVESGGGLVQAGGSLRLSCAASGSIFADYAMGWYRQAPGKEREFVAAITRSGTSTYYADSVKGRFTISRDNAKNTVYFQMNSLKPEDTAGYYCAKTEVLLYLYTLDYWGQGTQVTVSS | low polyreactivity
QLQLVESGGGLVQAGGSLRLSCAASGSIFFGNVMGWYRQAPGKERELVAAINTDGRTYYADSVKGRFTISRDNAKNTVYLQMNSLKPEDTAVYYCAARKGYRYYYWGQGTQVTVSS | high polyreactivity
QLQLVESGGGLVQAGGSLRLSCAASGSIFNDTAMGSYRQAPGKDRELVAAISWNGGSTYYADSVKGRFTISRDNAKNTVYLQMNSLKPQDTAVYYCAVYARYWYLLHYRYGYWGQGTQVTVSS | low polyreactivity

From the nanobody polyreactivity screen of Harvey et al. (2022)
